# Laboratory results taken from US20250223358A1 (ANTENGENE BIOLOGICS, published 2025).
# Numbering of substitutions follows the chain as printed. In names and notes the source's numbering stands.
# B1: hu40E9-L2H5 (antibody, V domains shown)
# VH: EVQLVQSGAEVKKPGSSVKVSCKASGYTFSSYVIHWVRQAPGQGLEWMGYINPGSGVIKYNEKFKGRVTLTSDKSTSTAYMELSSLRSEDTAVYYCARDSYYSYDGFAYWGQGTLVTVSS
# VL: EIVLTQSPDFQSVTPKEKVTITCSASSSVSYMHWYQQKPDQSPKRLIYDTSKLASGVPSRFSGSGSGTDFTLTINSLEAEDAATYYCQQWSSNPPTFGGGTKVEIK
# B2: hu40E9-L2H6 (antibody, V domains shown)
# VH: B1 VH with G54Y, S55N, G56D, D99E, Y101F, Y102S
# VL: B1 VL
# B3: hu40E9-L2H7 (antibody, V domains shown)
# VH: B1 VH with S55N, Y102S
# VL: B1 VL
# B4: hu40E9-L2H3 (antibody, V domains shown)
# VH: B1 VH with G54Y, S55N, G56D
# VL: B1 VL
# notes: humanized 40-C12-C10-E9
# B5: hu40E9-L2H3-D99E.H (antibody, V domains shown)
# VH: B1 VH with G54Y, S55N, G56D, D99E
# VL: B1 VL
# B6: hu40E9-L2H3-N55S.H (antibody, V domains shown)
# VH: B1 VH with G54Y, G56D
# VL: B1 VL
# B7: hu40E9-L2H3-N93R.L (antibody, V domains shown)
# VH: B1 VH with G54Y, S55N, G56D
# VL: B1 VL with N93R
# B8: hu40E9-L2H3-D105E.H (antibody, V domains shown)
# VH: B1 VH with G54Y, S55N, G56D, D105E
# VL: B1 VL
# B9: hu40E9-L2H3-D56G.H (antibody, V domains shown)
# VH: B1 VH with G54Y, S55N
# VL: B1 VL
# B10: hu40E9-L2H3-Y54G.H (antibody, V domains shown)
# VH: B1 VH with S55N, G56D
# VL: B1 VL
# B11: hu40E9-L3H4 (antibody, V domains shown)
# VH: B1 VH with M48I, G54Y, S55N, G56D, V68A
# VL: B1 VL with L46W, F70Y
# notes: humanized 40-C12-C10-E9
# B12: hu40E9-L2H3-N93W.L (antibody, V domains shown)
# VH: B1 VH with G54Y, S55N, G56D
# VL: B1 VL with N93W
# B13: hu40E9-L2H3-G106A.H (antibody, V domains shown)
# VH: B1 VH with G54Y, S55N, G56D, G106A
# VL: B1 VL
# B14: hu40E9-L2H3-N93S.L (antibody, V domains shown)
# VH: B1 VH with G54Y, S55N, G56D
# VL: B1 VL with N93S
# B15: hu40E9-L3H1 (antibody, V domains shown)
# VH: B1 VH with Y27G, G54Y, S55N, G56D, L70I, S72A
# VL: B1 VL with L46W, F70Y
# notes: humanized 40-C12-C10-E9
# B16: hu40E9-L2H3-Y101F.H (antibody, V domains shown)
# VH: B1 VH with G54Y, S55N, G56D, Y101F
# VL: B1 VL
# B17: hu40E9-L2H4 (antibody, V domains shown)
# VH: B1 VH with M48I, G54Y, S55N, G56D, V68A
# VL: B1 VL
# notes: humanized 40-C12-C10-E9
# B18: hu40E9-L2H3-D105R.H (antibody, V domains shown)
# VH: B1 VH with G54Y, S55N, G56D, D105R
# VL: B1 VL
# B19: hu40E9-L2H1 (antibody, V domains shown)
# VH: B1 VH with Y27G, G54Y, S55N, G56D, L70I, S72A
# VL: B1 VL
# notes: humanized 40-C12-C10-E9
# B20: hu40E9-L2H2 (antibody, V domains shown)
# VH: B1 VH with G54Y, S55N, G56D, L70I, S72A
# VL: B1 VL
# notes: humanized 40-C12-C10-E9
# B21: hu40E9-L2H3-S91R.L (antibody, V domains shown)
# VH: B1 VH with G54Y, S55N, G56D
# VL: B1 VL with S91R
# B22: hu40E9-L3H2 (antibody, V domains shown)
# VH: B1 VH with G54Y, S55N, G56D, L70I, S72A
# VL: B1 VL with L46W, F70Y
# notes: humanized 40-C12-C10-E9
# B23: hu40E9-L2H3-Y102S.H (antibody, V domains shown)
# VH: B1 VH with G54Y, S55N, G56D, Y102S
# VL: B1 VL
# Molecular target: T1, human CD3 (human, UniProt P07766 23-207; P04234 22-171; P09693 23-182)
# T1 construct: whole, on cells; also called hCD3; CD3 on Jurkat cells
# T1 sequence (P07766 23-207, chain 1 of 3): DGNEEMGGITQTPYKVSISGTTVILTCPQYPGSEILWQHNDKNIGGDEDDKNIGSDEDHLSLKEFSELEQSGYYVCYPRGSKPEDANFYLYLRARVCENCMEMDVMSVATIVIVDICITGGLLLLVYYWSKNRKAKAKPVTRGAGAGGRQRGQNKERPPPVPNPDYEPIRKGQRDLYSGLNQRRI
# T1 sequence (P04234 22-171, chain 2 of 3): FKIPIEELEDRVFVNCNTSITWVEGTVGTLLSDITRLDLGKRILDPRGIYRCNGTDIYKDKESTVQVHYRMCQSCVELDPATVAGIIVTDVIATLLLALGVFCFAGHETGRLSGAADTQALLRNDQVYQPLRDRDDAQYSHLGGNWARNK
# T1 sequence (P09693 23-182, chain 3 of 3): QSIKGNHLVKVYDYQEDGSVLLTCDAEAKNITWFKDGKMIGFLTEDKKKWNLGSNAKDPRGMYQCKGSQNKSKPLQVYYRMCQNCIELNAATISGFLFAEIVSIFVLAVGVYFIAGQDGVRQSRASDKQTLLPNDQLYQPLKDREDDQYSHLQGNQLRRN
# Assay: FACS on Jurkat cells
Binder,EC50 [nM],Top FACS signal
B1,0.36,1920
B2,4.17,1260
B3,0.66,2380

# Molecular target: T1, human CD3
# Assay: FACS on Jurkat cells
# Remark: another data set of the same source
Binder,EC50 [nM],Top FACS signal
B4,0.65,1580
B5,0.31,957
B6,0.51,1160
B7,0.63,1420
B8,1.16,1410
B9,0.32,1450
B10,0.51,1190
B11,0.49,1360
B12,0.51,1210
B13,2.39,771
B14,0.6,1360
B15,0.75,1250
B16,0.64,1190
B17,0.86,1570
B18,0.56,1480
B19,0.73,892
B20,0.81,1570
B21,0.32,1360
B22,0.52,1410
B23,0.47,1160

# Molecular target: T1, human CD3
# Assay: cell-based or functional assay
Binder,"EC50_Fold change (Jurkat-NFAT-luciferase activation, normalized to ch40-C12-C10-E9) [fold]","Top signal_Fold change (Jurkat-NFAT-luciferase activation, normalized to ch40-C12-C10-E9) [fold]"
B1,1.29,0.79
B2,4.57,0.74
B3,1.18,0.77

# Molecular target: T1, human CD3
# Assay: cell-based or functional assay
# Remark: another data set of the same source
Binder,"EC50_Fold change (Jurkat-NFAT-luciferase activation, normalized to ch40-C12-C10-E9) [fold]","Top FACS signal_Fold change (Jurkat-NFAT-luciferase activation, normalized to ch40-C12-C10-E9) [fold]"
B4,2.43,1.18
B5,1.19,0.91
B6,1.35,1.03
B7,0.81,1.07
B8,3.77,0.74
B9,0.65,0.82
B10,1.06,0.94
B11,0.61,0.64
B12,0.72,0.88
B13,4.95,0.99
B14,0.74,0.87
B15,1.33,0.97
B16,1.23,0.94
B17,0.8,0.89
B18,1.95,0.81
B19,5.73,1.37
B20,2.14,1.28
B21,0.79,0.95
B22,0.57,0.73
B23,0.87,0.96
